In this test the target is T1, recombinant human acetylcholinesterase (rhAChE), cleaved protein from codon 33 to codon 574 (human, UniProt P22303 33-574).
T1 construct: range 33-574; Expressed in HEK 293-H cells, secreted, tag removed with his-TEV protease; also called purified rhAChE; human AChE
Briefly: co-crystal of rhAChE complexed with fasciculin-2, X-ray crystallography (PDB 4EY8). As to the method: A crystallization buffer 44 is provided. The preferred crystallization buffer 44 contains 15-21% polyethylene glycol (PEG) 3350 and 0.17-0.21M potassium nitrate. Crystals of rhAChE are grown by sitting drop vapor diffusion at 22° C. against the crystallization buffer 44. See Block 46. Clustered hexagonal rod-shaped crystals (20×20×600 µm) are typically nucleated within 5 days and grow to full size within 3 days. Once the crystals are full size, they are harvested and flash frozen using liquid nitrogen. See Block 48. The harvested crystals 10 can then be cut and subjected to X-ray crystallography and modeling in the traditional manner. See Block 50. Since the rhAChE crystals 10 are not complexed, the X-ray crystallography produces models that more accurately represent AChE in the human brain. Additionally, the active sites that are obfuscated by snake venom in the prior art are open and active.
Referring to FIG. 4 in conjunction with FIG. 1, it will be understood that in order to complex the rhAChE crystals 10, a small volume of the complexing ligand 52 is added to the crystallization buffer 44 to create a modified crystallization buffer 54. Crystals of complexed rhAChE are grown by sitting drop vapor diffusion against the modified crystallization buffer 54. The crystals are then grown, harvested and imaged in the manner previously described.

Here are results for one molecule from patent publication US10544421 (NEW YORK STRUCTURAL BIOLOGY CENTER, dated 2020).

B1: fasciculin-2 (other)
chain: TMCYSHTTTSRAILTNCGENSCYRKSRRHPPKMVLGRGCGCPPGDDNLEVKCCTSPDKCNY
notes: Used as the complexing ligand in rhAChE crystals; also called snake venom fasciculin-2
B1: the binding result is listed as “binds”.
